This is an account of results in article doi:10.1101/2025.09.16.676546.

The assay deals with E.amu APN ectodomain, His-tagged (for cryo-EM) (Erinaceus amurensis). As to the kind of experiment: cryo-EM structure.

Substance “EriCoV RU15-1 RBD, His-tagged (for cryo-EM, BLI and SPR) (domain or fragment)” yielded a share of the total particles that are the complex of 5%.
